Test [1] has as its target recombinant RIM1 PDZ-domain (rat RIM1 residues 596-704) (rat) (UniProt Q9JIR4). The test can be described thus: ITC. (In ITC the heat of successive injections is recorded.)
Test [2] concerns the target T1, recombinant RIM1 PDZ-domain (rat RIM1 residues 596-704) (rat, UniProt Q9JIR4 596-704, ^15N-labeled (for the HSQC spectra)).
T1 sequence (looked up): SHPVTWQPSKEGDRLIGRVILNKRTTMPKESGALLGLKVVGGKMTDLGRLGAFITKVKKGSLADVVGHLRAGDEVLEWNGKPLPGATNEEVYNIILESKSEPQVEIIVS
Description: ITC.

Data on two molecules can be found in paper PMC3063406 (Cell, 2011).

The Kd is the constant that tells how readily two partners part at equilibrium. As usually defined, the stoichiometry N is a count of units in the complex or per binding partner.

Regarding “C-terminus of N-type Ca^2+-channels (tested by HSQC and calorimetry) (from UniProt Q00975 1-2339) (domain or fragment)”, in test [1], the Kd was 23.4 µM and the stoichiometry N came out at 0.93.

B1: peptide from the C-terminus of the P/Q-type Ca^2+-channel (residues RHDAYSESEDDWC) (peptide)
peptide: RHDAYSESEDDWC
For B1, in test [2], the Kd came to 10.3 ± 0.6 µM and the “stoichiometry N” value came to 0.93.
